Data taken from article PMC11364024, “Binding structures of SERF1a with NT17-polyQ peptides of huntingtin exon 1 revealed by SEC-SWAXS, NMR and molecular simulation” (IUCrJ, 2024).
Substitutions are numbered along the chain they refer to.

T1: human small EDRK-rich factor 1a (SERF1a) (human)
T1 construct: source: purified from the human SERF1a gene as reported previously (Tsai et al., 2023)
T1 chain: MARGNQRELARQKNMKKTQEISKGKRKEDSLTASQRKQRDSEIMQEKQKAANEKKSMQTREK

B1: NT17 (the N-terminal first 17 amino acids of the Httex1 protein) (peptide)
peptide: MATLEKLMKAFESLKSF
notes: huntingtin exon 1 (Httex1), N-terminal first 17 amino acids; also called NT17 fragment; source: synthetic peptide (peptide synthesis core, Genomics Research Center, Academia Sinica)
B2: Htt-1 (NT17-polyQ peptide of 33 amino acids with four leucines in the polyQ region) (peptide)
peptide: MATLEKLMKAFESLKSFLQQLQQQLQQLQQQYK
notes: huntingtin exon 1: NT17 followed by a 14-residue polyQ region in which four leucines replace the residues of position a/d to enhance alpha-helix formation; two C-terminal residues added after the polyQ region; not of huntingtin; source: synthetic peptide (peptide synthesis core, Genomics Research Center, Academia Sinica)
B3: Htt-3 (NT17-polyQ peptide of 33 amino acids with four prolines in the polyQ region) (peptide)
peptide: B2 peptide with L18P, L21P, L25P, L28P
notes: huntingtin exon 1: NT17 followed by a 14-residue polyQ region in which the positions a/d are substituted by four prolines to suppress alpha-helix formation; two C-terminal residues added after the polyQ region; not of huntingtin; source: synthetic peptide (peptide synthesis core, Genomics Research Center, Academia Sinica)

Legend:
[1] = target: T1, human small EDRK-rich factor 1a (SERF1a); experiment: SEC-SWAXS (size-exclusion column with small- and wide-angle X-ray scattering, UV-Vis absorption and dRI); mixtures of SERF1a with NT17 or with Htt-3 at 1:2 molar ratio, eluted together; sodium phosphate buffer pH 7.4; 283 K; composition of the complex from I0, UV-Vis absorption at 214 nm and dRI over the elution peak; settings: both partners purified
[2] = target: the molecule itself; experiment: SEC-SWAXS (size-exclusion column with small- and wide-angle X-ray scattering, UV-Vis absorption and dRI); single-component samples (SERF1a 4.1 mg/ml; Htt-1 10 mg/ml injected, diluted ca. 2-4 fold on the column); sodium phosphate buffer pH 7.4; 283 K; aggregation number from zero-angle intensity I0 and the concentration from optical data

Binder	stoichiometry N [1]	stoichiometry N [2]
B1	~2 NT17 per SERF1a	–
B2	–	2
B3	~1 Htt-3 per SERF1a	–
